In US20170037110A1 (IMMATICS BIOTECHNOLOGIES, published 2017):

What follows are binders tested against T1, HLA-A*02:01 (human) (assay: UV peptide exchange ELISA).
T1 construct: monomers captured on streptavidin plates; also called MHC class I
Excerpt: Candidate peptides for T cell based therapies according to the present invention were further tested for their MHC binding capacity (affinity). The individual peptide-MHC complexes were produced by UV-ligand exchange, where a UV-sensitive peptide is cleaved upon UV-irradiation, and exchanged with the peptide of interest as analyzed. Only peptide candidates that can effectively bind and stabilize the peptide-receptive MHC molecules prevent dissociation of the MHC complexes. To determine the yield of the exchange reaction, an ELISA was performed based on the detection of the light chain (p2m) of stabilized MHC complexes.
96 well MAXISorp plates (NUNC) were coated over night with 2 μg/ml streptavidin in PBS at room temperature, washed 4× and blocked for 1 h at 37° C. in 2% BSA containing blocking buffer. […] Peptide-MHC monomers of the UV-exchange reaction were diluted 100 fold in blocking buffer. Samples were incubated for 1h at 37° C., washed four times, incubated with 2 μg/ml HRP conjugated anti-p2m for 1h at 37° C., washed again and detected with TMB solution that is stopped with […]. Absorption was measured at 450 nm.

Binder	peptide exchange yield
FLATSGTLAGI	20 to 50%
ALLGIPLTLV	50 to 75%
KLIDNNINV	50 to 75%
ILVGGGALATV	50 to 75%
FLLAEDDIYL	50 to 75%
VQIHQVAQV	50 to 75%
YLDFSNNRL	20 to 50%
ALNPEIVSV	20 to 50%
RLWEEGEELEL	50 to 75%
SLLEADPFL	50 to 75%
GLLPTPLFGV	50 to 75%
NLLELFVQL	50 to 75%
LIIDQADIYL	50 to 75%
SVMEVNSGIYRV	50 to 75%
YHIDEEVGF	10 to 20%
SLNDEVPEV	20 to 50%
SLVGLLLYL	≥ 75%
YQYPRAILSV	50 to 75%
FVPPVTVFPSL	20 to 50%
FLFATPVFI	50 to 75%
KVLSNIHTV	20 to 50%
YIFTDNPAAV	50 to 75%
SLLEAVSFL	50 to 75%

Binder	peptide exchange yield
NLWDLTDASVV	50 to 75%
LLVEQPPLAGV	50 to 75%
LLQAIKLYL	20 to 50%
SLVGEPILQNV	20 to 50%
AIAGAGILYGV	20 to 50%
RVANLHFPSV	50 to 75%
ILPDGEDFLAV	50 to 75%
ALSEVDFQL	50 to 75%
SLATAGDGLIEL	20 to 50%
SVIPQIQKV	50 to 75%
TLAEEVVAL	50 to 75%
YLFDDPLSAV	20 to 50%
ALVSKGLATV	20 to 50%
ALFPGVALLLA	≥ 75%
LLYDAVHIVSV	50 to 75%
YLFESEGLVL	50 to 75%
FLIANVLYL	10 to 20%
VLVSDGVHSV	50 to 75%
FLQPVDDTQHL	50 to 75%
SLINGSFLV	50 to 75%
ALYETELADA	20 to 50%
YLIDIKTIAI	20 to 50%
FLSQVDFEL	50 to 75%

Binder	peptide exchange yield
FLYIGDIVSL	≥ 75%
HLTEVYPEL	50 to 75%
ILFEDIFDV	50 to 75%
ALDDGTPAL	20 to 50%
KIGDEPPKV	20 to 50%
STMEQNFLL	≥ 75%
TLVLTLPTV	≥ 75%
YLLSTNAQL	≥ 75%
VLAYFLPEA	≥ 75%
YLQELIFSV	50 to 75%
LLLDITPEI	≥ 75%
KILQQLVTL	50 to 75%
YLADPSNLFVV	50 to 75%
GVVDPRAISVL	20 to 50%
GLLDGGVDILL	50 to 75%
IILSILEQA	≥ 75%
SLMEPPAVLLL	50 to 75%
YIMEPSIFNTL	50 to 75%
YVWGFYPAEV	50 to 75%
GIMEHITKI	≥ 75%
SLASKLTTL	≥ 75%
FLWNGEDSALL	50 to 75%
YMDAPKAAL	20 to 50%
